Measurements: IntAct's records for PubMed 31169361

B1: Nuclear factor erythroid 2-related factor 2 (Mus musculus), Q60795 (parent)
chain: MMDLELPPPGLQSQQDMDLIDILWRQDIDLGVSREVFDFSQRQKDYELEKQKKLEKERQEQLQKEQEKAFFAQFQLDEETGEFLPIQPAQHIQTDTSGSASYSQVAHIPKQDALYFEDCMQLLAETFPFVDDHESLALDIPSHAESSVFTAPHQAQSLNSSLEAAMTDLSSIEQDMEQVWQELFSIPELQCLNTENKQLADTTAVPSPEATLTEMDSNYHFYSSISSLEKEVGNCGPHFLHGFEDSFSSILSTDDASQLTSLDSNPTLNTDFGDEFYSAFIAEPSDGGSMPSSAAISQSLSELLDGTIEGCDLSLCKAFNPKHAEGTMEFNDSDSGISLNTSPSRASPEHSVESSIYGDPPPGFSDSEMEELDSAPGSVKQNGPKAQPAHSPGDTVQPLSPAQGHSAPMRESQCENTTKKEVPVSPGHQKAPFTKDKHSSRLEAHLTRDELRAKALHIPFPVEKIINLPVDDFNEMMSKEQFNEAQLALIRDIRRRGKNKVAAQNCRKRKLENIVELEQDLGHLKDEREKLLREKGENDRNLHLLKRRLSTLYLEVFSMLRDEDGKPYSPSEYSLQQTRDGNVFLVPKSKKPDTKKN
B2: Astrotactin-1 (Homo sapiens), O14525-2 (parent)
chain: MALAGLCALLACCWGPAAVLATAAGDVDPSKELECKLKSITVSALPFLRENDLSIMHSPSASEPKLLFSVRNDFPGEMVVVDDLENTELPYFVLEISGNTEDIPLVRWRQQWLENGTLLFHIHHQDGAPSLPGQDPTEEPQHESAEEELRILHISVMGGMIALLLSILCLVMILYTRRRWCKRRRVPQPQKSASAEAANEIHYIPSVLIGGHGRESLRNARVQGHNSSGTLSIRETPILDGYEYDITDLRHHLQRECMNGGEDFASQVTRTLDSLQGCNEKSGMDLTPGSDNAKLSLMNKYKDNIIATSPVDSNHQQATLLSHTSSSQRKRINNKARAGSAFLNPEGDSGTEAENDPQLTFYTDPSRSRRRSRVGSPRSPVNKTTLTLISITSCVIGLVCSSHVNCPLVVKITLHVPEHLIADGSRFILLEGSQLDASDWLNPAQVVLFSQQNSSGPWAMDLCARRLLDPCEHQCDPETGECLCYEGYMKDPVHKHLCIRNEWGTNQGPWPYTIFQRGFDLVLGEQPSDKIFRFTYTLGEGMWLPLSKSFVIPPAELAINPSAKCKTDMTVMEDAVEVREELMTSSSFDSLEVLLDSFGPVRDCSKDNGGCSKNFRCISDRKLDSTGCVCPSGLSPMKDSSGCYDRHIGVDCSDGFNGGCEQLCLQQMAPFPDDPTLYNILMFCGCIEDYKLGVDGRSCQLITETCPEGSDCGESRELPMNQTLFGEMFFGYNNHSKEVAAGQVLKGTFRQNNFARGLDQQLPDGLVVATVPLENQCLEEISEPTPDPDFLTGMVNFSEVSGYPVLQHWKVRSVMYHIKLNQVAISQALSNALHSLDGATSRADFVALLDQFGNHYIQEAIYGFEESCSIWYPNKQVQRRLWLEYEDISKGNSPSDESEERERDPKVLTFPEYITSLSDSGTKHMAAGVRMECHSKGRCPSSCPLCHVTSSPDTPAEPVLLEVTKAAPIYELVTNNQTQRLLQEATMSSLWCSGTGDVIEDWCRCDSTAFGADGLPTCAPLPQPVLRLSTVHEPSSTLVVLEWEHSEPPIGVQIVDYLLRQEKVTDRMDHSKVETETVLSFVDDIISGAKSPCAMPSQVPDKQLTTISLIIRCLEPDTIYMFTLWGVDNTGRRSRPSDVIVKTPCPVVDDVKAQEIADKIYNLFNGYTSGKEQQTAYNTLLDLGSPTLHRVLYHYNQHYESFGEFTWRCEDELGPRKAGLILSQLGDLSSWCNGLLQEPKISLRRSSLKYLGCRYSEIKPYGLDWAELSRDLRKTCEEQTLSIPYNDYGDSKEI
B3: Astrotactin-1 (Mus musculus), Q61137-2 (parent)
chain: MALAGLCALFACCWGPAAVLATAAGDVDPSKELECKLKSITVSALPFLRENDLSIMHSPSASEPKLLFSVRNDFPGEMVVVDDLENTELPYFVLEISGNTEDIPLVRWRQQWLENGTLLFHIHHQDGAPSLPGQDPTEEPQHESAEEELRILHISVMGGMIALLLSILCLVMILYTRRRWCKRRRVPQPQKSASAEAANEIHYIPSVLIGGHGRESLRNARVQGHNSSGTLSIRETPILDGYEYDITDLRHHLQRECMNGGEDFASQVTRTLDSLQGCNEKSGMDLTPGSDNAKLSLMNKYKDNIIATSPVDSNHQQATLLSHTSSSQRKRINNKARAGSAFLNPEGDSSTEAENDPQLTFYTDPSRSRRRSRVGSPRSPVNKTTLTLISVTSCVIGLVCSSHVSCPLVVKITLHVPEHLIADGSRFILLEGSQLDASDWLNPAQVVLFSQQNSSGPWAMDLCARRLLDPCEHQCDPETGECLCYEGYMKDPVHKHLCIRNEWGTNQGPWPYTIFQRGFDLVLGEQPSDKIFRFTYTLGEGMWLPLSKSFVIPPAELAINPSAKCKTDMTVMEDAVEVREELMTSSSFDSLEVLLDSFGPVRDCSKDNGGCSKNFRCISDRKLDSTGCVCPSGLSPMKDSSGCYDRHIGVDCSDGFNGGCEQLCLQQMAPFPEDPTLYNILMFCGCIEDYKLGVDGRSCQLVTETCPEGGDCGESREVPMNQTLFGEMFFGYNNQSKEVATGQVLKGTFRQNNFARGLDQQLPDGLVVASVPLENQCLEEISEPTPDPDFLTGMVNFSEVSGYPVLQHWKVRSVMYHIKLNQAAISQAFSNALHSLDGATSRADFVALLDQFGNHYIQEAVYGFEESCSIWYPNKQVQRRLWLEYEDISKGNSPSDESEERERDPKVLTFPEYIASLSDSGTKRMAAGVRMECQSKGRCPSSCPLCHVTSSPETPAEPVLLEVTRASPIYELVTNNQTQRLLQEATMSSLWCSGTGDVIEDWCRCDSTAFGADGLPTCAPLPQPVLRLSTVHEPSSNLVVLEWEHSEPPIGVQIVDYLIRQEKVTDRMDHSKVETETVLSFVDDIISGAKAPCAMPSQVPDKQLTTISLIIRCLEPDTIYMFTLWGVDNTGRRSRPSDVIVKTPCPVVDDVKAQEIADKIYNLFNGYTSGKEQQTAYNTLLDLGSPTLHRVLYHYNQHYESFGEFTWRCEDELGPRKAGLILSQLGDLSSWCNGLLQEPKISLRRGSLKYLGCRYSEIKPYGLDWSELSRDLRKTCEEQTLSVPYNDYGDSKDI

Variants of: B1
Conditions: with keap1_mouse Keap1, Q9Z2X8
Target sequence in this assay (Q9Z2X8 whole entry): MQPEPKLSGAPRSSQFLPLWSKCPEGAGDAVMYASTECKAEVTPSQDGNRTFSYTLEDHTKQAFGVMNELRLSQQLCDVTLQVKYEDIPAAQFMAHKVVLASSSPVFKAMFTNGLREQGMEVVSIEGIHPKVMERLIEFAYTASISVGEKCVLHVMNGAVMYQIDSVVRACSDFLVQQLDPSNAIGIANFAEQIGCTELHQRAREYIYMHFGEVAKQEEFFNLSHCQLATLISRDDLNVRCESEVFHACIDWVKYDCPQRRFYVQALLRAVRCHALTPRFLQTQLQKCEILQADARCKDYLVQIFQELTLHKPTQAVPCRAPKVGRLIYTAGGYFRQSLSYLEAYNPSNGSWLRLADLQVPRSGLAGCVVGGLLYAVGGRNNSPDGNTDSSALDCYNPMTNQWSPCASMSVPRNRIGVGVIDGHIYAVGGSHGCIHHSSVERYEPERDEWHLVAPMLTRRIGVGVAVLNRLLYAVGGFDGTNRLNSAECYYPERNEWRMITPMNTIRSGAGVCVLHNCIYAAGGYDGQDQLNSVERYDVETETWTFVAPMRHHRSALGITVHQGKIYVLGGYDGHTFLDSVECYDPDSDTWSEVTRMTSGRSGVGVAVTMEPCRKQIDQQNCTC

Variant | effect of a mutation on the interaction
D77A;E79A | disrupting interaction strength

Variants of: B2
Conditions: with keap1_human KEAP1, Q14145
Sequence of keap1_human KEAP1, Q14145 (Q14145 whole entry): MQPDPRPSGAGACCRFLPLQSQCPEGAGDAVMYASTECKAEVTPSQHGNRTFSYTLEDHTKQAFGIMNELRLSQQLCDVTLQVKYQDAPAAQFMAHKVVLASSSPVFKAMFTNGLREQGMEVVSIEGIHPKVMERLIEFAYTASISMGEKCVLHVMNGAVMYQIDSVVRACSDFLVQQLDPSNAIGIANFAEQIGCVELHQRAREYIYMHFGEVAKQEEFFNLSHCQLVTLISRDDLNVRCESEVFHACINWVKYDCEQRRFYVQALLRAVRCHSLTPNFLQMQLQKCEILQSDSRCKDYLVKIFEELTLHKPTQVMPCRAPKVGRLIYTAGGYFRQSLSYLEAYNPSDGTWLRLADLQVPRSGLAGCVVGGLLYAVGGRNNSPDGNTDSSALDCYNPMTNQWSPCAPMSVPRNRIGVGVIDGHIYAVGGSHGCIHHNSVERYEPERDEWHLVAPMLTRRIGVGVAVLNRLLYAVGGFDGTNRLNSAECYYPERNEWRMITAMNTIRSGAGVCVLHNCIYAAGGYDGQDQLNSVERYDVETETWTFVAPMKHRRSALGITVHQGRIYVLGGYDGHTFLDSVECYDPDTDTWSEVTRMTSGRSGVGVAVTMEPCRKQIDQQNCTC

effect of a mutation on the interaction | Variant
increasing interaction strength | C482S;C484S
with no effect | C484S
with no effect | C482S

Second part, the variant before the results:

Variant | effect of a mutation on the interaction
D476A;E478A | disrupting interaction strength
C475L | with no effect
C475S | decreasing interaction strength
C475S;C484S | decreasing interaction strength
C475S;C482S | with no effect

Variants of: B2
Conditions: with keap1_human KEAP1, Q14145
Remark: another data set of the same source

Variant | effect of a mutation on the interaction
D476A;E478A | decreasing interaction strength

Variants of: B3
Conditions: with keap1_mouse Keap1, Q9Z2X8
Target sequence in this assay (Q9Z2X8 whole entry): as the sequence (Q9Z2X8 whole entry) above

Variant | effect of a mutation on the interaction
D476A;E478A | with no effect
